Assay results as given in patent US20210101998A1.
Where a chain is given by its changes, count along the chain named. Read-outs that look alike come from different tables or passages of the source. One block for each binder: values may come before it.

What was measured:
[1] = biological target: endogenous TFPI in human plasma (human), P10646; assay: cell-based or functional assay
[2] = biological target: endogenous TFPI in human plasma (human), P10646; assay: cell-based or functional assay; remark: listed apart in the source

TGA Velocity Index at 20 nM [1]: 23.2
dilute prothrombin time EC50 [1]: 0.57 nM
B1: TFPI-24 (antibody, human IgG1, lambda)
light: not shown
heavy: EVQLVESGGGSVQPGRSLRLSCAVSGLTIDNYAMQWVRQRPGKGLEWVSGISGNSRSIGYADSVKGRLTISRDNAKNSLYLQIDSLRADDTALYYCAIFLHESDYWGQGTLVTVSSASTKGPSVFPLAPSSKSTSGGTAALGCLVKDYFPEPVTVSWNSGALTSGVHTFPAVLQSSGLYSLSSVVTVPSSSLGTQTYICNVNHKPSNTKVDKKVEPKSCDKTHTCPPCPAPEAAGAPSVFLFPPKPKDTLMISRTPEVTCVVVDVSHEDPEVKFNWYVDGVEVHNAKTKPREEQYNSTYRVVSVLTVLHQDWLNGKEYKCKVSNKALPAPIEKTISKAKGQPREPQVYTLPPSREEMTKNQVSLTCLVKGFYPSDIAVEWESNGQPENNYKTTPPVLDSDGSFFLYSKLTVDKSRWQQGNVFSCSVMHEALHNHYTQKSLSLSPG

Dilute PT EC50 [1]: 1.16 nM
TGA Velocity EC50 [1]: 7.72 nM
dilute prothrombin time EC50 [1]: 1.16 nM
B2: TFPI-118 (antibody, human IgG1, lambda)
light: not shown
heavy: B1 heavy with S11L, R40A, L68F, I83M, D84N, D89E

Dilute PT EC50 [1]: 0.47 nM
TGA Velocity EC50 [1]: 3.9 nM
TGA Velocity Index at 20 nM [1]: 15.7
dilute prothrombin time EC50 [1]: 0.47 nM
B4: hz4D8 (antibody, human IgG1, kappa)
light: DIQMTQSPSSLSASVGDRVTITCKASQDVHTAVAWYQQKPGKAPKLLIYWASTRHTGVPSRFSGSGSGTDYTLTISSLQPEDFATYYCQQHYTTPYTFGQGTKLEIKRTVAAPSVFIFPPSDEQLKSGTASVVCLLNNFYPREAKVQWKVDNALQSGNSQESVTEQDSKDSTYSLSSTLTLSKADYEKHKVYACEVTHQGLSSPVTKSFNRGEC
heavy: EVQLVESGGGLVQPGGSLRLSCAASGYTFTDYNLDWVRQAPGKGLEWVADINPINGATLYNQKFKGRFTISRDQAKNSLYLQMNSLRAEDTAVYYCARYYGDYDAMDYWGQGTLVTVSSASTKGPSVFPLAPSSKSTSGGTAALGCLVKDYFPEPVTVSWNSGALTSGVHTFPAVLQSSGLYSLSSVVTVPSSSLGTQTYICNVNHKPSNTKVDKKVEPKSCDKTHTCPPCPAPEAAGAPSVFLFPPKPKDTLMISRTPEVTCVVVDVSHEDPEVKFNWYVDGVEVHNAKTKPREEQYNSTYRVVSVLTVLHQDWLNGKEYKCKVSNKALPAPIEKTISKAKGQPREPQVYTLPPSREEMTKNQVSLTCLVKGFYPSDIAVEWESNGQPENNYKTTPPVLDSDGSFFLYSKLTVDKSRWQQGNVFSCSVMHEALHNHYTQKSLSLSPG

Further lines, the binder ahead of its results:

B3: 7A4.D9 (antibody, mouse IgG1, kappa)
light: DIVLTQSPASLAVSLGQRATISCRASKSVSTSGYTYMHWYQQKPGQPPKLLIYLASNLESGVPARFSGSGSGTDFTLNIHPVEEEDAAAYYCQHIRELPFTFGSGTKLEIKADAAPTVSIFPPSSEQLTSGGASVVCFLNNFYPKDINVKWKIDGSERQNGVLNSWTDQDSKDSTYSMSSTLTLTKDEYERHNSYTCEATHKTSTSPIVKSFNRNEC
heavy: EVQLQQSGPELVKPGASVKMSCKASGYTFTSYVMHWVKQKPGQGLEWIGYLNPYNDGTKYNEKFKGKASLISDKSSSTVYMELSSLTSEDSAVYYCATTLLYAMDYWGQGSSVTVSSAKTTPPSVYPLAPGSAAQTNSMVTLGCLVKGYFPEPVTVTWNSGSLSSGVHTFPAVLQSDLYTLSSSVTVPSSTWPSETVTCNVAHPASSTKVDKKIVPRDCGCKPCICTVPEVSSVFIFPPKPKDVLTITLTPKVTCVVVDISKDDPEVQFSWFVDDVEVHTAQTQPREEQFNSTFRSVSELPIMHQDWLNGKEFKCRVNSAAFPAPIEKTISKTKGRPKAPQVYTIPPPKEQMAKDKVSLTCMITDFFPEDITVEWQWNGQPAENYKNTQPIMDTDGSYFVYSKLNVQKSNWEAGNTFTCSVLHEGLHNHHTEKSLSHSPGK
TGA Velocity Index at 20 nM [2]: 23.3

B5: 4D8.b1 (antibody, mouse IgG1, kappa)
light: DIVMTQSHKFMSTSVGDRVSITCKASQDVHTAVAWYQQKPGQSPRLLIYWASTRHTGVPDRFTGCGSGTDYTLTISSVQAEDLALYYCQQHYTTPYTFGGGTKLEMKADAAPTVSIFPPSSEQLTSGGASVVCFLNNFYPKDINVKWKIDGSERQNGVLNSWTDQDSKDSTYSMSSTLTLTKDEYERHNSYTCEATHKTSTSPIVKSFNRNEC
heavy: EVLLQQSGPELVKPGASVKIPCKASGYTFTDYNLDWVKQSHGKSLEWIGDINPINGATLYNQKFKGKATLTVDQSSSTAYMELRSLTSEDTAVYYCSIYYGDYDAMDYWGQGASVTVSSAKTTPPSVYPLAPGSAAQTNSMVTLGCLVKGYFPEPVTVTWNSGSLSSGVHTFPAVLQSDLYTLSSSVTVPSSTWPSETVTCNVAHPASSTKVDKKIVPRDCGCKPCICTVPEVSSVFIFPPKPKDVLTITLTPKVTCVVVDISKDDPEVQFSWFVDDVEVHTAQTQPREEQFNSTFRSVSELPIMHQDWLNGKEFKCRVNSAAFPAPIEKTISKTKGRPKAPQVYTIPPPKEQMAKDKVSLTCMITDFFPEDITVEWQWNGQPAENYKNTQPIMDTDGSYFVYSKLNVQKSNWEAGNTFTCSVLHEGLHNHHTEKSLSHSPGK
TGA Velocity Index at 20 nM [1]: 13.5
TGA Velocity Index at 20 nM [2]: 26.3

B6: 6B7.c5 (antibody, mouse IgG1, kappa)
light: B5 light with H30I, R45K, D60V, C65S, S76I, T93S, M106I
heavy: EVLLQQSGPELVKPGSSVKIPCKASGYTFTDYTMDWVKQSHGKSLEWIGDINPSNGGSIYNRKFKGKATLTVDKSSSTAYMELRSLTSEDTAVYYCARMHYNYDGFPYWGQGTLVTVSAAKTTPPSVYPLAPGSAAQTNSMVTLGCLVKGYFPEPVTVTWNSGSLSSGVHTFPAVLQSDLYTLSSSVTVPSSTWPSETVTCNVAHPASSTKVDKKIVPRDCGCKPCICTVPEVSSVFIFPPKPKDVLTITLTPKVTCVVVDISKDDPEVQFSWFVDDVEVHTAQTQPREEQFNSTFRSVSELPIMHQDWLNGKEFKCRVNSAAFPAPIEKTISKTKGRPKAPQVYTIPPPKEQMAKDKVSLTCMITDFFPEDITVEWQWNGQPAENYKNTQPIMDTDGSYFVYSKLNVQKSNWEAGNTFTCSVLHEGLHNHHTEKSLSHSPGK
TGA Velocity Index at 20 nM [2]: 23.5

B7: 2A8-200 (antibody, human IgG1, lambda)
light: DIELTQPPSVSVAPGQTARISCSGDNLRNYYAHWYQQKPGQAPVVVIFYDVNRPSGIPERFSGSNSGNTATLTISGTQAEDEADYYCQSWWDGVPVFGGGTKLTVLGQPKAAPSVTLFPPSSEELQANKATLVCLISDFYPGAVTVAWKADSSPVKAGVETTTPSKQSNNKYAASSYLSLTPEQWKSHRSYSCQVTHEGSTVEKTVAPTECS
heavy: QVQLVESGGGLVQPGGSLRLSCAASGFTFRSYGMDWVRQAPGKGLEWVSSIRGSRSSTYYADSVKGRFTISRDNSKNTLYLQMNSLRAEDTAVYYCARLYRYWFDYWGQGTLVTVSSASTKGPSVFPLAPSSKSTSGGTAALGCLVKDYFPEPVTVSWNSGALTSGVHTFPAVLQSSGLYSLSSVVTVPSSSLGTQTYICNVNHKPSNTKVDKKVEPKSCDKTHTCPPCPAPEAAGAPSVFLFPPKPKDTLMISRTPEVTCVVVDVSHEDPEVKFNWYVDGVEVHNAKTKPREEQYNSTYRVVSVLTVLHQDWLNGKEYKCKVSNKALPAPIEKTISKAKGQPREPQVYTLPPSREEMTKNQVSLTCLVKGFYPSDIAVEWESNGQPENNYKTTPPVLDSDGSFFLYSKLTVDKSRWQQGNVFSCSVMHEALHNHYTQKSLSLSPG
Dilute PT EC50 [1]: 1 nM
